This is an account of results in the supplement of paper PMC9112550, “Optimization of the antimicrobial peptide Bac7 by deep mutational scanning” (BMC Biology, 2022).
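Note: peptides expressed intracellularly from a pBAD plasmid library in pooled LB shake-flask culture, induced with 0.3% L-arabinose, DNA abundance read by NGS, three biological replicates, DESeq2 with apeglm shrinkage.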

The data set has as its system Escherichia coli TOP10. The experiment in a line: shrunken log2 fold change of peptide-encoding DNA abundance (4.5 h post-induction vs induction); higher = less antimicrobial activity (less host growth inhibition). Conditions: time post-induction: 4.5 h; library: site-saturation at positions 5, 18, 19, 20.
In the case of RRIRIRPPRLPRPRPRPGPNPRP, the “shrunken log2 fold change” value is -0.113.

As to RRIRVRPPRLPRPRPRPKGHPRP, the “shrunken log2 fold change” value is -0.0413.

As for RRIRFRPPRLPRPRPRPMVTPRP, the “shrunken log2 fold change” value was -0.138.

For RRIRDRPPRLPRPRPRPDSCPRP, the “shrunken log2 fold change” value stood at 0.0444.

For the sequence RRIRTRPPRLPRPRPRPGLDPRP, the “shrunken log2 fold change” value was 0.0222.

For RRIRCRPPRLPRPRPRPTMHPRP, the “shrunken log2 fold change” value was -0.112.

Regarding RRIRCRPPRLPRPRPRPHFCPRP, the “shrunken log2 fold change” value was -0.649.

As to RRIRERPPRLPRPRPRPHRMPRP, the “shrunken log2 fold change” value was -0.305.

RRIRDRPPRLPRPRPRPMPMPRP: the “shrunken log2 fold change” value stood at 0.0753.

In the case of RRIRWRPPRLPRPRPRPWIAPRP, the “shrunken log2 fold change” value was -0.11.

As for RRIRTRPPRLPRPRPRPEGSPRP, the “shrunken log2 fold change” value was 0.161.

For RRIRARPPRLPRPRPRPPCHPRP, the “shrunken log2 fold change” value worked out at 0.219.

For RRIRYRPPRLPRPRPRPWSTPRP, the “shrunken log2 fold change” value is -0.458.

Regarding RRIRQRPPRLPRPRPRPDGVPRP, the “shrunken log2 fold change” value was -0.119.

As for RRIRPRPPRLPRPRPRPPMKPRP, the “shrunken log2 fold change” value came out at 0.0802.

For the sequence RRIRYRPPRLPRPRPRPCCGPRP, the “shrunken log2 fold change” value is -0.33.

For RRIRTRPPRLPRPRPRPVVEPRP, the “shrunken log2 fold change” value worked out at 0.0529.

As for RRIRGRPPRLPRPRPRPRYIPRP, the “shrunken log2 fold change” value is -0.222.

Consider RRIRIRPPRLPRPRPRPWGPPRP, for which the “shrunken log2 fold change” value came to 0.102.

Take RRIRWRPPRLPRPRPRPQNAPRP: the “shrunken log2 fold change” value was -0.182.

In the case of RRIRVRPPRLPRPRPRPVIKPRP, the “shrunken log2 fold change” value was -0.138.

RRIRTRPPRLPRPRPRPLDFPRP: the “shrunken log2 fold change” value was -0.19.

RRIRFRPPRLPRPRPRPRAHPRP: the “shrunken log2 fold change” value came to 0.00718.

For the sequence RRIRSRPPRLPRPRPRPHHAPRP, the “shrunken log2 fold change” value was -0.41.

For the sequence RRIRPRPPRLPRPRPRPGDCPRP, the “shrunken log2 fold change” value amounted to 0.482.

Consider RRIRRRPPRLPRPRPRPDIPPRP, for which the “shrunken log2 fold change” value was -0.22.

With RRIRWRPPRLPRPRPRPVCDPRP, the “shrunken log2 fold change” value came to 0.534.

As to RRIRRRPPRLPRPRPRPNVSPRP, the “shrunken log2 fold change” value came out at 0.137.

As to RRIRKRPPRLPRPRPRPHLWPRP, the “shrunken log2 fold change” value turned out to be 0.709.

In the case of RRIRKRPPRLPRPRPRPRQWPRP, the “shrunken log2 fold change” value was determined as 0.263.

As to RRIRARPPRLPRPRPRPNDCPRP, the “shrunken log2 fold change” value was found to be 0.0748.

In the case of RRIRDRPPRLPRPRPRPNAPPRP, the “shrunken log2 fold change” value came to 0.209.

Consider RRIRSRPPRLPRPRPRPINIPRP, for which the “shrunken log2 fold change” value was -0.589.

Turning to RRIRFRPPRLPRPRPRPEMTPRP, the “shrunken log2 fold change” value is -0.328.

With RRIRKRPPRLPRPRPRPGRRPRP, the “shrunken log2 fold change” value came to 0.438.

In the case of RRIRQRPPRLPRPRPRPISNPRP, the “shrunken log2 fold change” value was -0.223.

For the sequence RRIRARPPRLPRPRPRPVESPRP, the “shrunken log2 fold change” value turned out to be 0.986.

Consider RRIRQRPPRLPRPRPRPDWDPRP, for which the “shrunken log2 fold change” value is -0.00122.

On to RRIRFRPPRLPRPRPRPQDLPRP, for which the “shrunken log2 fold change” value is -0.0337.

Consider RRIRIRPPRLPRPRPRPMWFPRP, for which the “shrunken log2 fold change” value is -0.0453.

Regarding RRIRCRPPRLPRPRPRPWMGPRP, the “shrunken log2 fold change” value worked out at 0.439.

Turning to RRIRQRPPRLPRPRPRPYSIPRP, the “shrunken log2 fold change” value was 0.098.

RRIRSRPPRLPRPRPRPVDWPRP: the “shrunken log2 fold change” value is 0.306.

Consider RRIRGRPPRLPRPRPRPFKIPRP, for which the “shrunken log2 fold change” value was 0.0381.

As for RRIRGRPPRLPRPRPRPHINPRP, the “shrunken log2 fold change” value was 0.214.

Turning to RRIRARPPRLPRPRPRPNQHPRP, the “shrunken log2 fold change” value was -0.124.

For the sequence RRIRPRPPRLPRPRPRPVQHPRP, the “shrunken log2 fold change” value was determined as 0.278.

RRIRPRPPRLPRPRPRPHPRPRP: the “shrunken log2 fold change” value is 0.597.

For RRIRRRPPRLPRPRPRPFIIPRP, the “shrunken log2 fold change” value was -0.323.

As to RRIRCRPPRLPRPRPRPAEFPRP, the “shrunken log2 fold change” value is -0.0616.

For the sequence RRIRRRPPRLPRPRPRPQKQPRP, the “shrunken log2 fold change” value was found to be 0.338.

Regarding RRIRHRPPRLPRPRPRPALPPRP, the “shrunken log2 fold change” value was 0.0229.

On to RRIRWRPPRLPRPRPRPAMAPRP, for which the “shrunken log2 fold change” value worked out at 0.529.

RRIRGRPPRLPRPRPRPQCEPRP: the “shrunken log2 fold change” value was 1.31.

RRIRQRPPRLPRPRPRPHNYPRP: the “shrunken log2 fold change” value is -0.437.

For the sequence RRIRKRPPRLPRPRPRPVFIPRP, the “shrunken log2 fold change” value was -0.0138.

On to RRIRIRPPRLPRPRPRPRAHPRP, for which the “shrunken log2 fold change” value was -0.201.

As for RRIRCRPPRLPRPRPRPQMHPRP, the “shrunken log2 fold change” value was -0.27.

Turning to RRIRQRPPRLPRPRPRPENNPRP, the “shrunken log2 fold change” value is -0.331.

With RRIRARPPRLPRPRPRPYHIPRP, the “shrunken log2 fold change” value was -0.356.

Turning to RRIRGRPPRLPRPRPRPNGPPRP, the “shrunken log2 fold change” value was -0.0411.

With RRIRQRPPRLPRPRPRPCWMPRP, the “shrunken log2 fold change” value is -0.408.

As to RRIRVRPPRLPRPRPRPWIMPRP, the “shrunken log2 fold change” value is -0.0202.

Turning to RRIRWRPPRLPRPRPRPSAIPRP, the “shrunken log2 fold change” value was -0.201.

As to RRIRWRPPRLPRPRPRPQAKPRP, the “shrunken log2 fold change” value was 0.00651.

With RRIRHRPPRLPRPRPRPVLKPRP, the “shrunken log2 fold change” value was -0.295.

Turning to RRIRKRPPRLPRPRPRPKCTPRP, the “shrunken log2 fold change” value worked out at 0.0297.

With RRIRVRPPRLPRPRPRPSPGPRP, the “shrunken log2 fold change” value came to 0.252.

As to RRIRPRPPRLPRPRPRPTHWPRP, the “shrunken log2 fold change” value worked out at 0.484.

As to RRIRHRPPRLPRPRPRPCLHPRP, the “shrunken log2 fold change” value is -0.0114.

Turning to RRIRGRPPRLPRPRPRPYIIPRP, the “shrunken log2 fold change” value is -0.158.

In the case of RRIRHRPPRLPRPRPRPEWAPRP, the “shrunken log2 fold change” value is -0.0848.

As for RRIRWRPPRLPRPRPRPWEMPRP, the “shrunken log2 fold change” value is -0.0156.

RRIRPRPPRLPRPRPRPVTRPRP: the “shrunken log2 fold change” value is -0.0129.

As to RRIRGRPPRLPRPRPRPVSLPRP, the “shrunken log2 fold change” value came out at 0.321.

Regarding RRIRERPPRLPRPRPRPNFRPRP, the “shrunken log2 fold change” value is -0.479.

Regarding RRIRERPPRLPRPRPRPSGQPRP, the “shrunken log2 fold change” value is -0.148.

In the case of RRIRGRPPRLPRPRPRPWSFPRP, the “shrunken log2 fold change” value was -0.113.

In the case of RRIRPRPPRLPRPRPRPIPNPRP, the “shrunken log2 fold change” value is -0.353.

In the case of RRIRERPPRLPRPRPRPENRPRP, the “shrunken log2 fold change” value is -0.29.

Regarding RRIRHRPPRLPRPRPRPTLEPRP, the “shrunken log2 fold change” value worked out at 0.319.

As for RRIRMRPPRLPRPRPRPSWMPRP, the “shrunken log2 fold change” value was -0.0767.

Take RRIRFRPPRLPRPRPRPFDCPRP: the “shrunken log2 fold change” value is -0.0469.

In the case of RRIRMRPPRLPRPRPRPGYAPRP, the “shrunken log2 fold change” value worked out at 0.341.

As to RRIRPRPPRLPRPRPRPCPRPRP, the “shrunken log2 fold change” value worked out at 0.0438.

As for RRIRSRPPRLPRPRPRPIPTPRP, the “shrunken log2 fold change” value is 0.2.

On to RRIRQRPPRLPRPRPRPDVQPRP, for which the “shrunken log2 fold change” value was -0.0191.

As to RRIRKRPPRLPRPRPRPVEWPRP, the “shrunken log2 fold change” value is 0.12.

Regarding RRIRCRPPRLPRPRPRPWCMPRP, the “shrunken log2 fold change” value is -0.585.

Regarding RRIRGRPPRLPRPRPRPDYLPRP, the “shrunken log2 fold change” value was 0.115.

Consider RRIRVRPPRLPRPRPRPWHAPRP, for which the “shrunken log2 fold change” value was -0.109.

For RRIRSRPPRLPRPRPRPCLWPRP, the “shrunken log2 fold change” value was determined as 0.0729.

RRIRWRPPRLPRPRPRPFDSPRP: the “shrunken log2 fold change” value was -0.124.

For RRIRYRPPRLPRPRPRPGKFPRP, the “shrunken log2 fold change” value is -0.0427.

RRIRPRPPRLPRPRPRPMEKPRP: the “shrunken log2 fold change” value is -0.00992.

Consider RRIRIRPPRLPRPRPRPMIMPRP, for which the “shrunken log2 fold change” value was -0.615.

Turning to RRIRVRPPRLPRPRPRPTKEPRP, the “shrunken log2 fold change” value was -0.0294.

In the case of RRIRHRPPRLPRPRPRPHDTPRP, the “shrunken log2 fold change” value is -1.08.

On to RRIRGRPPRLPRPRPRPDQIPRP, for which the “shrunken log2 fold change” value is 0.167.

As to RRIRFRPPRLPRPRPRPDRPPRP, the “shrunken log2 fold change” value stood at 0.033.

As to RRIRMRPPRLPRPRPRPRISPRP, the “shrunken log2 fold change” value was 0.395.

In the case of RRIRLRPPRLPRPRPRPLGPPRP, the “shrunken log2 fold change” value stood at 0.332.

In the case of RRIRYRPPRLPRPRPRPPRGPRP, the “shrunken log2 fold change” value worked out at 0.284.

In the case of RRIRQRPPRLPRPRPRPAASPRP, the “shrunken log2 fold change” value amounted to 0.129.

Regarding RRIRNRPPRLPRPRPRPAWYPRP, the “shrunken log2 fold change” value was -0.178.

Turning to RRIRGRPPRLPRPRPRPWIWPRP, the “shrunken log2 fold change” value is 0.236.

On to RRIRARPPRLPRPRPRPLPPPRP, for which the “shrunken log2 fold change” value worked out at 0.805.

In the case of RRIRARPPRLPRPRPRPIERPRP, the “shrunken log2 fold change” value turned out to be 0.047.

On to RRIRPRPPRLPRPRPRPQNYPRP, for which the “shrunken log2 fold change” value is -0.395.

Turning to RRIRRRPPRLPRPRPRPAHVPRP, the “shrunken log2 fold change” value stood at 0.0907.

RRIRDRPPRLPRPRPRPGYCPRP: the “shrunken log2 fold change” value was -0.658.

On to RRIRTRPPRLPRPRPRPASCPRP, for which the “shrunken log2 fold change” value turned out to be 0.066.

In the case of RRIRLRPPRLPRPRPRPMVKPRP, the “shrunken log2 fold change” value was -0.147.

For the sequence RRIRKRPPRLPRPRPRPSLYPRP, the “shrunken log2 fold change” value stood at 0.0834.

As to RRIRPRPPRLPRPRPRPIAAPRP, the “shrunken log2 fold change” value is 0.621.

On to RRIRSRPPRLPRPRPRPGNHPRP, for which the “shrunken log2 fold change” value was -0.311.

On to RRIRDRPPRLPRPRPRPRHGPRP, for which the “shrunken log2 fold change” value was -0.0452.

Take RRIRTRPPRLPRPRPRPDSWPRP: the “shrunken log2 fold change” value was -0.595.

With RRIRCRPPRLPRPRPRPFDDPRP, the “shrunken log2 fold change” value was 0.0116.

For the sequence RRIRVRPPRLPRPRPRPPALPRP, the “shrunken log2 fold change” value was found to be 0.189.

Consider RRIRDRPPRLPRPRPRPDHAPRP, for which the “shrunken log2 fold change” value is -0.00822.

Consider RRIRKRPPRLPRPRPRPEYSPRP, for which the “shrunken log2 fold change” value was 0.0499.

Take RRIRWRPPRLPRPRPRPEKYPRP: the “shrunken log2 fold change” value was -0.357.

For RRIRLRPPRLPRPRPRPHSIPRP, the “shrunken log2 fold change” value is -0.191.

In the case of RRIRYRPPRLPRPRPRPAIAPRP, the “shrunken log2 fold change” value was 0.0565.
